Test results: patent US6995018B1, “Complex formed by N-linked glycoproteins (SIBLINGS)and Factor H” (The United States of America as represented by the …, priority 1999, dated 2006)
Entries after “also recorded” stand apart in the source; their conditions may differ.

B1: DMP1: dentin matrix protein, SIBLINGS family member; recombinant from adenoviral construct (protein)
chain: LPVTRYQNNESEDSEEWKGHLAQAPTPPLESSESSEGSKVSSEEQANEDPSDSTQSEEGLGSDDHQYIYRLAGGFSRSTGKGGDDKDDDEDDSGDDTFGDDDSGPGPKDRQEGGNSRLGSDEDSDDTIQASEESAPQGQDSAQDTTSESRELDNEDRVDSKPEGGDSTQESESEEHWVGGGSDGESSHGDGSELDDEGMQSDDPESIRSERGNSRMNSAGMKSKESGENSEQANTQDSGGSQLLEHPSRKIFRKSRISEEDDRSELDDNNTMEEVKSDSTENSNSRDTGLSQPRRDSKGDSQEDSKENLSQEESQNVDGPSSESSQEANLSSQENSSESQEEVVSESRGDNPDPTTSYVEDQEDSDSSEEDSSHTLSHSKSESREEQADSESSESLNFSEESPESPEDENSSSQEGLQSHSSSAESQSEESHSEEDDSDSQDSSRSKEDSNSTESKSSSEEDGQLKNIEIESRKLTVDAYHNKPIGDQDDNDCQDGY
B2: BSP: Bone sialoprotein, phosphorylated and sulfated integrin-binding glycoprotein, SIBLINGS family; recombinant form from adenovirus-infected human marrow stromal fibroblasts (protein)
chain: FSMKNLHRRVKIEDSEENGVFKYRPRYYLYKHAYFYPHLKRFPVQGSSDSSEENGDDSSEEEEEEEETSNEGENNEESNEDEDSEAENTTLSATTLGYGEDATPGTGYTGLAAIQLPKKAGDITNKATKEKESDEEEEEEEEGNENEESEAEVDENEQGINGTSTNSTEAENGNGSSGGDNGEEGEEESVTGANAEGTTETGGQGKGTSKTTTSPNGGFEPTTPPQVYRTTSPPFGKTTTVEYEGEYEYTGVNEYDNGYEIYESENGEPRGDNYRAYEDEYSYFKGQGYDGYDGQNYYHHQ

Tests used:
[1] = target: T1, purified human complement Factor H (Homo sapiens, UniProt P08603); experiment: Steady state fluorescence titration of Factor H with SIBLINGS proteins; assay type: binding; settings: fluorescence quenching at 347 nm, excitation 295 nm
T1 construct: purchased Quidel Corporation (San Diego, Calif.)
T1 sequence (P08603 19-1231): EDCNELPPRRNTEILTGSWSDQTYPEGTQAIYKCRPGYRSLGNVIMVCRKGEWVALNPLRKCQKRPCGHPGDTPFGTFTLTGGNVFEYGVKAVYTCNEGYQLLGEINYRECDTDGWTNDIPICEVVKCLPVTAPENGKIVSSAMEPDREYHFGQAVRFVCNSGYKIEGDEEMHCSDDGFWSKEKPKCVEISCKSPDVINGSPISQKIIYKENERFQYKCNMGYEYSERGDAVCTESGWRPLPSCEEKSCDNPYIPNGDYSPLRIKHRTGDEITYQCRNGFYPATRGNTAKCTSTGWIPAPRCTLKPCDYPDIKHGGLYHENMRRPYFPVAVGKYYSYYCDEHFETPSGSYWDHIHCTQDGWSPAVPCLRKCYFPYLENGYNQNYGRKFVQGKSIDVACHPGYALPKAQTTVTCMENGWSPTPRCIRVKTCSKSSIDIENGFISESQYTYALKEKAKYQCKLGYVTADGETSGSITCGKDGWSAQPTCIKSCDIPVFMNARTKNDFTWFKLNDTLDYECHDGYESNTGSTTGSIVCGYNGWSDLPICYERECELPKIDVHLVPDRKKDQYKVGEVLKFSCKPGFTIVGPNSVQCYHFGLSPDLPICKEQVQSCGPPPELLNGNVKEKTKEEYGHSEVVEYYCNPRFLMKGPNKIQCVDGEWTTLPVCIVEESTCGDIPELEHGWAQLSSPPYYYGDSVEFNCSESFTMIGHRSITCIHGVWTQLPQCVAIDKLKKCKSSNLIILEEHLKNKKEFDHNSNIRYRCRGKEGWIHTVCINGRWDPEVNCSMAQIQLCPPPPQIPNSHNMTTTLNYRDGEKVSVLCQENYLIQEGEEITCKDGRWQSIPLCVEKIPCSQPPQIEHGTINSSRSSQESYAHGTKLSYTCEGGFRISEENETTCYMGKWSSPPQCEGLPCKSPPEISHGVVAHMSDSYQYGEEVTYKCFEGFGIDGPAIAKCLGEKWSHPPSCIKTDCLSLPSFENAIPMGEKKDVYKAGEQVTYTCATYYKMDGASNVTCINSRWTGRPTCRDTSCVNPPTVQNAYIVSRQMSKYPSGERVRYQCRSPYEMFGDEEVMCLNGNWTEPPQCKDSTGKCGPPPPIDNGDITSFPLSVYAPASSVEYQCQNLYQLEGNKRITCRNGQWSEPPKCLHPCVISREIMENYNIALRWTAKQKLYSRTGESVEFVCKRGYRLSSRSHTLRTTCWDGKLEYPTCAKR
From the text: FIGS. 3A and 3B are graphs which show the result of a titration of Factor H with BSP.
The salient structural features of Factor H include 20 short consensus repeats (SCRs) that contain four cysteine residues forming two disulfide bonds per repeat. In addition, each SCR contains one conserved tryptophan residue per repeat and Factor H is known to interact with several sialic acid-containing proteins. Therefore, binding interactions between members of the SIBLINGS family of proteins and Factor H can be studied by steady state fluorescence.
Steady state fluorescence studies were accomplished by titrating purified human complement Factor H with rBSP, rOPN, and rDMP1 followed by excitation at 295 nm and monitoring emission between 300 and 450 nm. The emission profile of Factor H alone yields a peak at 347 nm. The addition of rBSP, rOPN, or rDMP1 in nm increments causes a relative fluorescent intensity quenching. Conversion of the fluorescent intensity titration into a binding curve by determining the fraction of binding sites occupied as the fractional change in fluorescence quenching at 347 nm yields a saturable binding curve. […] Given that normal serum concentration of Factor H is ^˜0.5 mg/mL it is probable that virtually all BSP, OPN, and DMP1 in serum will be complexed with Factor H.

[2] = test system: Murine erythroleukemia (MEL) cells; experiment: Alternate complement mediated cell lysis assay, MEL cells with normal human serum; assay type: cell-based; settings: for protection of MEL cells from complement-mediated lysis (cell viability): 10 μg/mL protein 10 min, normal human serum 1:10, 2 h, trypan blue and MTT
Experimental: MEL cells were rinsed three times with GVB-MgEGTA buffer, resuspended in GVB-MgEGTA at a density of 5×10^6 cells/mL, and incubated at 37° C. with different concentrations of normal human serum. After 2 hrs, cells were harvested for trypan blue exclusion assay. The thiazolium blue assay was carried out at identical serum dilutions and cell viability was determined by absorbance at 560 nm. Each data point represents the average of three measurements. The error bars represent the standard deviation of the mean (A). MEL cells in GVB-MgEGTA buffer were incubated with 10 μg/mL of either rBSP or rOPN for 10 minutes at 37° C. Normal human serum was then added at a dilution of 1:10 and the cells were returned to 37° C., incubated for 2 hours and cell viability was determined by trypan blue and thiazolyl blue (MTT) reduction assays (B). Data from 3–7 separate experiments, with treatment replicates in triplicate, was combined to yield mean values. Error bars represent the standard error of the mean. N=number of experiments combined.
MEL cells prepared as in FIG. 8 were treated with normal rBSP (10 μg/mL), rBSP whose RGD sequence had been mutated to KAE ([…]), and either GRGDS (SEQ ID NO: 10) peptide (400 μM) followed by rBSP or an αVβ3 antibody (1:4000) followed by rBSP for 10 minutes prior to the addition of normal human serum. The cells were then incubated for […] after which cell viability determined using the MTT assay (A). A cohort of MEL cells were pretreated with rOPN (10 μg/mL) alone, GRGDS (SEQ ID NO: 10) peptide followed by rOPN, the αVβ3 antibody followed by rOPN, or an anti-CD44 antibody (Chemicon, Co.) followed by rOPN, or hyaluronan (HA) followed by rOPN (B). Cells were then treated with normal human serum and viability assayed as in FIG. 8. […] The data represents the mean and standard error of the mean for three separate experiments. Statistical significance was determined by analysis of variance. Percent cell viability was determined using A560 absorbance values of various conditions and a control where no serum had been added (100% viable). The cross-hatched region represents that range of values observed when normal human serum (1:10) alone was added (maximal cell death).
The first model system employed was a murine erythroleukemia (MEL) cell line which when incubated with normal human serum can be readily assayed for alternate complement pathway (ACP)-mediated cell lysis (Varnet et al., Curr. Opin. Cell Biol., 8(5):724–730, 1996). Cell survival was measured by both trypan blue dye exclusion and by thiazolyl blue (MTT) reduction by living mitochondria. Titration with dilutions of normal human serum and time courses were carried out to define optimal incubation conditions. At 1:10 dilution, human serum totally lysed the MEL cells as measured by both assay systems (FIG. 8A).
Murine erytliroleukemia (MEL) cells (a gift of Dr. Marilyn Farquhar, Univ. CA San Diego.) grown in DMEM containing 10% fetal bovine serum and 4 mM glutamine were rinsed three times with gelatin veronal buffer with Mg2^+ and EGTA (GVB-MgEGTA, Sigma, St. Louis, Mo.). Cells were resuspended in GVB-MgEGTA at a density of 5×10^6 cells/mL and incubated at 37° C. with different concentrations of normal human serum diluted in GVB-MgEGTA. […] Cell viability was determined spectrophotometrically by absorbance at 560 nm. […]

U-266 myeloma cells = experiment: Alternate complement pathway cell lysis assay with guinea pig serum, U-266; assay type: cell-based, human; settings: U-266, 10 μg/mL, guinea pig serum 1:5, trypan blue and MTT
Experimental: (§1) Human cancer cell lines, MCF-7 (A) and U-266 (B) cells were rinsed three time with GVB-MgEGTA buffer and subsequently treated exactly as in the MEL cell complement-mediated cell lysis assay described above except complement active guinea pig serum (GPS) was substituted for human serum. Three different dilutions of GPS were assayed. For cultures pretreated with 10 μg/mL BSP or OPN, the dilution of GPS used was 1:5. Cell viability was determined by both trypan blue exclusion (solid bar) and MTT (open bar) assay. The bars represent the mean values of triplicate samples and the error bars are the standard deviation values.
(§2) Murine erytliroleukemia (MEL) cells (a gift of Dr. Marilyn Farquhar, Univ. CA San Diego.) grown in DMEM containing 10% fetal bovine serum and 4 mM glutamine were rinsed three times with gelatin veronal buffer with Mg2^+ and EGTA (GVB-MgEGTA, Sigma, St. Louis, Mo.). Cells were resuspended in GVB-MgEGTA at a density of 5×10^6 cells/mL and incubated at 37° C. with different concentrations of normal human serum diluted in GVB-MgEGTA. […] Cell viability was determined spectrophotometrically by absorbance at 560 nm. […] Normal human serum collected for good complement activity was then added at a dilution of 1:10 and the cells returned to 37° C. for 2 hours and cell viability was determined by trypan blue-exclusion and MTT assays. […]

[3] = test system: MCF-7 breast cancer cells; experiment: Alternate complement pathway cell lysis assay with guinea pig serum, MCF-7; assay type: cell-based, human; settings: MCF-7, 10 μg/mL, guinea pig serum 1:5, trypan blue and MTT
Experimental: as §1, §2

Row | Molecule | binding constant with Factor H [1] | dose relation of protection of MEL cells from alternate complement pathway-mediated lysis [2] | protection of MEL cells from complement-mediated lysis (cell viability) [2] | survival and protection from complement-mediated cell lysis (U-266 myeloma cells) | survival and protection from complement-mediated cell lysis [3] | protection of MEL cells from complement-mediated lysis (cell viability) ([2]; listed as recombinant BSP)
1 | B1 | in the nM range | dose related responses | conferred protection; also recorded: protect the cells |  |  | 
2 | B2 | in the nM range | dose related responses | protect | enhanced survival and protection | enhanced survival and protection | completely protected
